T1: CHK1sv1 (Homo sapiens, UniProt O14757)
T1 construct: made in house; host or cells: SF9 insect cells (baculovirus, pVL1393 transfer vector)
T1 sequence (O14757 with tags, fused parts or gaps): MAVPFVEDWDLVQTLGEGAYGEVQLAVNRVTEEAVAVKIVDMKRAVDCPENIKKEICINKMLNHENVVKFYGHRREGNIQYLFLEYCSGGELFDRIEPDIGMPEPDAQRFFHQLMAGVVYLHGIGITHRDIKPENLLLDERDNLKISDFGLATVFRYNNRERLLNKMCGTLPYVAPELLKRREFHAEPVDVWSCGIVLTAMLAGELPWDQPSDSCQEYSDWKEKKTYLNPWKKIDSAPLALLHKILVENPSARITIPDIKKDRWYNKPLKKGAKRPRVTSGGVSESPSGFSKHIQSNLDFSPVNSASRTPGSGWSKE

T2: reference CHK1 (Homo sapiens, UniProt O14757)
T2 sequence (O14757 1-476): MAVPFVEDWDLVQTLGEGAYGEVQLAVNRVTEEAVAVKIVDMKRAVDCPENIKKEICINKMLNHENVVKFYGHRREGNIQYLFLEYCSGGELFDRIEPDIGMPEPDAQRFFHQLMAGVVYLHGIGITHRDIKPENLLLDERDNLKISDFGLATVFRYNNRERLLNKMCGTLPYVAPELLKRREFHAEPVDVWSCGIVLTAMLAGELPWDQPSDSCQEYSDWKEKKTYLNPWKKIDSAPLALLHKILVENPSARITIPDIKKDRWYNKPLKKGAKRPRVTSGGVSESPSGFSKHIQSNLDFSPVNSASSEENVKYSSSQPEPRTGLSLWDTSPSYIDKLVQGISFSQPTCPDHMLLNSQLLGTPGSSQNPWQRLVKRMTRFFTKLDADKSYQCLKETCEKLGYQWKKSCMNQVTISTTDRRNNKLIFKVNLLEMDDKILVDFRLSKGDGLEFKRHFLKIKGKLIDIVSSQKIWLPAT

B1: CHK1sv1: splice variant isoform of human CHK1 protein, exon 9 spliced to exon 11, expressed in SF9 insect cells (protein, listed as Homo sapiens)
chain: T1 sequence (O14757 with tags, fused parts or gaps)
B2: CHK1: human checkpoint kinase 1 reference protein (protein, UniProt O14757 1-476, looked up)
Serine/threonine-protein …: T2 sequence (O14757 1-476)

Tests used:
CHK1sv1 = target: T1, CHK1sv1; assay: CHK1sv1 kinase assay (Homogenous Time-Resolved Fluorescence, synthetic peptide substrate); assay type: biochemical; details: phospho-peptide product per microgram of CHK1sv1; ATP and CDC25C peptide substrate at saturating concentrations
Method: CHK1sv1 activity was assayed in vitro using a synthetic peptide substrate. The phophopeptide product was quantitated using a Homogenous Time-Resolved Fluorescence assay system (Park et al., 1999, Anal. Biochem. 269:94-104). The reaction mixture contained 40 mM HEPES, pH 7.3; 100 mM NaCl; 10 mM MgCl2; 2 mM dithiothreitol; 0.1% BSA; 0.1 mM ATP; 0.5 μM peptide substrate; and 0.1 nM CHK1sv1 enzyme in a final volume of 40 μl. […] The kinase reaction was incubated for 30 minutes at 22° C., and then terminated with 60 μl Stop/Detection Buffer (40 mM HEPES, pH 7.3; 10 mM EDTA; 0.125% Triton X-100; 1.25% BSA; 250 nM PhycoLink Streptavidin-Allophycocyanin (APC) Conjugate (Prozyme, San Leandro, Calif.); and […] Europium-chelate labeled anti-phosphotyrosine antibody (PY20, Perkin Elmer, Boston, Mass.)). The reaction was allowed to equilibrate for 2 hours at 22° C., and relative fluorescent units were read on a Discovery plate reader (Packard Biosciences). ATP Km was determined by varying ATP concentration from 0.003 to 3 mM in the reaction described above and determining the relative enzymatic rates. […] CHK1sv1 Vmax was calculated by determining the amount of phospho-peptide product formed per microgram of CHKsv1 when both ATP and CDC25C peptide substrate are at saturating concentrations.

reference CHK1 = target: T2, reference CHK1; details: previously described (O'Neill et al., 2002; Jackson et al., 2000); cited from earlier work

Row | Molecule | Vmax (CHK1sv1) [nmol/min/µg] | Vmax (reference CHK1) [nmol/min/µg]
1 | B1 | 36 | –
2 | B2 | – | 0.6
